Molecular target: T1, GLP-1R (Mus musculus, UniProt O35659)
T1 construct: high expression level of glucagon-like-peptide-1 receptor (GLP-1R) on the surface of β-cells enables their specific detection and quantification in the native pancreas; from tissue; host or cells: pancreas and insulinomas of living control and RIP1-Tag2 mice
T1 sequence (O35659 22-463): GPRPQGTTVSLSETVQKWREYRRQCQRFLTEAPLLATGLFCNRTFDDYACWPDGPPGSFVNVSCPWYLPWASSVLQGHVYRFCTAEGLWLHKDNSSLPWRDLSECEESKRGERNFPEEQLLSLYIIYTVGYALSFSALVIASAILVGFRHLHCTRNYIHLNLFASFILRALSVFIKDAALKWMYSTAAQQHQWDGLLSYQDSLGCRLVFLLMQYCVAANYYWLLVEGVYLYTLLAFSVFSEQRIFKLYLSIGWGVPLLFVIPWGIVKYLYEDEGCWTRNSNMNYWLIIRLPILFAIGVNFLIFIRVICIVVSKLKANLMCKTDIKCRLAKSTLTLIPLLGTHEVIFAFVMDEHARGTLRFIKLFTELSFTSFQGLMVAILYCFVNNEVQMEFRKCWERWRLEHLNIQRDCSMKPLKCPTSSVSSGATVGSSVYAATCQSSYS
Set-up: species or system mice
Conditions: in vivo
Description: In brief, mice were fasted for 4-6 hours and anesthetized with 1-2% isoflurane/O2 gas mixture (Vetland, Louisville, KY, USA) before the in vivo measurements. A tail vein catheter was initially placed for the co-injection of 50 µL of tracer solution (0.12 MBq/g bodyweight) and 50 µL of MnCl2:Bicine solution (75 µmol/kg body weight). The animals were placed in supine position on the bed in order to attenuate the motion artifacts rising from the respiratory movements. Thus, [^64Cu]Ex4 and MnCl2 solution were co-injected i.v. as a bolus a few seconds after the beginning of dynamic PET measurements. […] PET quantification was performed by 20-min static frames acquired simultaneously with 7T MRI scanner using a compatible PET-insert or consecutively using an Inveon-PET scanner (Inveon Dedicated PET, Siemens Healthineers, Knoxville, TN, USA). […] During the acquisition, we monitored the breathing with an MR-compatible breathing sensor. […]
The volume of interest (VOI) for the entire pancreas (Pancreas^Control; Pancreas^RIP1-Tag2) and the detected insulinomas (Insulinomas^RIP1-Tag2) were manually drawn in Inveon Research Workplace (Siemens Heathineers) after co-registration of the PET images. […] The co-registered VOIs were exported and analyzed in MATLAB (R2013b; The MathWorks, Natick, MA, USA) using an in-house script. […] For the quantification, we considered voxels with R1 values between 0.4 and 10 s^-1. […]

[^64Cu]Cu-NODAGA-^40Lys-Exendin-4 [[^64Cu]Ex4]
dynamic PET curve of pancreatic uptake: stable pancreatic uptake after 20 min until 1 h

From article PMC6929626, “PET/MRI enables simultaneous in vivo quantification of β-cell mass and function” (Theranostics, 2020)
